For orientation: Kd means the constant that tells how readily two partners part at equilibrium. Usually koff stands for the rate constant with which the complex falls apart. Low readings indicate a long-lived complex, high ones a short-lived complex. A word on the kon: it is the second-order rate constant of association. Lower therefore signals slow association.

From patent US20230109275A1 (AUTOLUS, published 2023) come the findings set out here.

Assay [1] has as its target T1, TRBC2 on HPB-ALL cells engineered to express only TRBC2 (human, UniProt A0A5B9 1-178).
T1 construct: whole, on cells; also called HPB-ALL TRBC2; HPB-ALL TRBC2+
Briefly: internalisation of pHrodo red conjugated antibody, flow cytometry, 24 h. The procedure:
(§1) Cell uptake of the anti-TRBC1 antibody hJOVI-1 and the anti-TRBC2 antibody KFN was tested on HPB-ALL cells that were engineered to express only TRBC1, only TRBC2, or which were the TRBC was knocked-out (KO). To this aim, the pH-sensitive fluorophore
(§2) Zenon pHrodo iFL red (Thermo Scientific), which has a 560/585 nm spectrum, was used to conjugate hJOVI-1 and KFN in IgG format following the manufacturer's recommendations. The irrelevant anti-HEL antibody was also conjugated for use as control. The conjugated antibodies were incubated with HPB-ALL TRBC1, HPB-ALL TRBC2 and HPB-ALL KO cells for 24 h at 37° C., 5% CO2. Test antibodies hJOVI-1, KFN, and anti-HEL were applied at 5 μg/ml in a 96-well plate with 5×10⁴ cells/well in 100 μl of RPMI 10% FBS. After 24 h, cells were washed, harvested and stained with 1:100 LIVE/DEAD™ Fixable Violet Dead Cell Stain (Thermofisher) for 10 min before being analysed by flow cytometry using a Fortessa flow cytometer (BD).
A general note: A flow cytometer gives signals particle by particle.

Assay [2] addresses T2, TRBC1 (T cell receptor beta-chain constant domain 1), interaction partner protein injected in SPR (human, UniProt P01850 1-129, limits assumed).
T2 construct: also called TCR beta constant region 1
Put plainly: SPR (Biacore T200), antibody captured on anti-human IgG chip, TRBC1 injected, 25 C, 1:1 Langmuir fit. The procedure: (§3) Surface plasmon resonance (SPR) was carried out on several of antibody variants of hJOVI-1 to ascertain affinity, association and dissociation rates. The sequence details of these variants Mut1 to Mut15 used in the Examples section of the present patent application are included in Tables 1 and 2. These anti-TRBC antibody variants have specificity for either TRBC1 or TRBC2.
(§4) SPR experiments were performed using a Biacore T200 instrument using HBSP1 as the running and dilution buffer (GE Healthcare BioSciences). BIAevaluation software version 2.0 (GE Healthcare) was used for data processing. For determination of the binding kinetics, mouse anti-human IgG (GE Healthcare) was covalently coupled to a CM5 Sensor Chip (GE Healthcare). Anti-TRBC1 or anti-TRBC2 antibodies were captured onto the flow cell, and various concentrations of interaction partner protein (TRBC1 or TRBC2) were injected over the flow cell at a flow rate of […] at a temperature of 25° C. A double reference subtraction was performed using buffer alone. Kinetic rate constants were obtained by curve fitting according to a 1:1 Langmuir binding model.

For assay [3], the target named is T1, TRBC2 on HPB-ALL cells engineered to …. Put plainly: internalisation (9h), pHrodo green MFI, flow cytometry.
In assay [4] the target is T3, TRBC1 on HPB-ALL cells engineered to express only TRBC1 (human, UniProt P01850 1-176).
T3 construct: whole, on cells; also called HPB-ALL TRBC1; HPB-ALL TRBC1+
The assay is described as above.

The target of assay [5] is T3, TRBC1 on HPB-ALL cells engineered to …. Briefly: internalisation of pHrodo red conjugated antibody, flow cytometry, 24 h. On the procedure:
as §1, §2

In assay [6] the target is T4, TRBC2 (T cell receptor beta-chain constant domain 2), interaction partner protein injected in SPR (human, UniProt A0A5B9 1-129, limits assumed).
T4 construct: the construct is not described; also called TCR beta constant region 2
T4 sequence (A0A5B9 1-129 limits assumed): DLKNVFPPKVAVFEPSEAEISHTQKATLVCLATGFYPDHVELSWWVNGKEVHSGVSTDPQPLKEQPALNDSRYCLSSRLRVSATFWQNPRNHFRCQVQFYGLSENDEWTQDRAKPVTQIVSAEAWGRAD
Briefly: SPR (Biacore T200), antibody captured on anti-human IgG chip, TRBC2 injected, 25 C, 1:1 Langmuir fit. On the procedure:
as §3, §4
On the technique in general: Surface plasmon resonance follows binding to a sensor surface in real time, without labels.

T2 sequence (P01850 1-129 limits assumed): as the sequence (A0A5B9 1-129 limits assumed) above, with K3N, N4K, K9E, Y36F counted along it

B1: hJOVI-1 (humanised JOVI-1 antibody, reference antibody) (antibody, V domains shown)
VH: QVQLVQSGAEVKKPGASVKVSCKASGYTFTGYVMHWVRQAPGQGLEWMGFINPYNDDIQSNERFRGRVTMTRDTSISTAYMELSRLRSDDTAVYYCARGAGYNFDGAYRFFDFWGQGTMVTVSS
VL: DIVMTQSPLSLPVTPGEPASISCRSSQRLVHSNGNTYLHWYLQKPGQSPRLLIYRVSNRFPGVPDRFSGSGSGTDFTLKISRVEAEDVGVYYCSQSTHVPYTFGQGTKLEIK
notes: Tested in IgG format and captured by anti-human IgG in SPR; also called aTRBC1; anti-TRBC1 antibody hJOVI-1
As for B1, the binding result in assay [1] was “no binding (tested: 5 µg/ml)”. In assay [2], this molecule displayed a Kd of 2.57 nM, a koff of 0.000618 s⁻¹ and an association rate constant (kon) of 238000 M⁻¹ s⁻¹.

B2: Mut11-MMAE (antibody, V domains shown)
VH: QVQLVQSGAEVKKPGASVKVSCKASGYTFTGYVMHWVRQAPGQGLEWMGFINPYNDDIQSNERFRGRVTMTRDTSISTAYMELSRLRSDDTAVYYCARGAGYNFDAAYRFFDFWGQGTMVTVSS
VL: DIVMTQSPLSLPVTPGEPASISCRSSQRLVHSNGNTYLHWYLQKPGQSPRLLIYRVSNRFPGVPDRFSGSGSGTDFTLKISRVEAEDVGVYYCSQSTHVPYTFGQGTKLEIK
modifications: mc-vc-PAB-MMAE conjugated to reduced inter-chain cysteines; drug-antibody ratio 3.1
notes: also called MMAE-conjugated Mut11; MMAE conjugated Mut11
Turning to B2, the binding result in assay [3] is reported as “no binding (tested: not printed on the sheet)”.

B3: Mut15-MMAE (antibody, V domains shown)
VH: QVQLVQSGAEVKKPGASVKVSCKASGYKFTGFVMHWVRQAPGQGLEWMGFINPYNDDIQSNERFRGRVTMTRDTSISTAYMELSRLRSDDTAVYYCARGNGLMFDGAYRFFDFWGQGTMVTVSS
VL: DIVMTQSPLSLPVTPGEPASISCRSSQRLVHSNGRTYLHWYLQKPGQSPRLLIYRVSNRFPGVPDRFSGSGSGTDFTLKISRVEAEDVGVYYCSQSTHVPYTFGQGTKLEIK
modifications: mc-vc-PAB-MMAE conjugated to reduced inter-chain cysteines; drug-antibody ratio 3.2
notes: also called MMAE-conjugated Mut15; MMAE conjugated Mut15
In the case of B3, the binding result in assay [4] is listed as “no binding (tested: not printed on the sheet)”.

B4: Mut3 (KFN) (antibody, V domains shown)
VH: QVQLVQSGAEVKKPGASVKVSCKASGYKFTGFVMHWVRQAPGQGLEWMGFINPYNDDIQSNERFRGRVTMTRDTSISTAYMELSRLRSDDTAVYYCARGNGYNFDGAYRFFDFWGQGTMVTVSS
VL: DIVMTQSPLSLPVTPGEPASISCRSSQRLVHSNGNTYLHWYLQKPGQSPRLLIYRVSNRFPGVPDRFSGSGSGTDFTLKISRVEAEDVGVYYCSQSTHVPYTFGQGTKLEIK
notes: Variant of hJOVI-1; IgG format; also called anti-TRBC2 antibody KFN; anti-TRBC2 clone KFN
With B4, in assay [5], the binding result is “no binding (tested: 5 µg/ml)”. In assay [6], this molecule showed a dissociation constant (Kd) of 479 nM, a koff of 0.0386 s⁻¹ and a kon of 83000 M⁻¹ s⁻¹.

B5: Mut14 (antibody, V domains shown)
VH: QVQLVQSGAEVKKPGASVKVSCKASGYKFTGFVMHWVRQAPGQGLEWMGFINPYNDDIQSNERFRGRVTMTRDTSISTAYMELSRLRSDDTAVYYCARGNGYNFDGSYRFFDFWGQGTMVTVSS
VL: DIVMTQSPLSLPVTPGEPASISCRSSQRLVHSNGNTYLHWYLQKPGQSPRLLIYRVSNRFPGVPDRFSGSGSGTDFTLKISRVEAEDVGVYYCSQSTHVPYTFGQGTKLEIK
notes: Variant of hJOVI-1; IgG format; also called VH T28K, Y32F, A100N, A107S
In assay [2], B5 returned a Kd of 3590 nM, an off-rate (koff) of 0.323 s⁻¹ and a kon of 90000 M⁻¹ s⁻¹.

B6: Mut10 (antibody, V domains shown)
VH: QVQLVQSGAEVKKPGASVKVSCKASGYTFTGYVMHWVRQAPGQGLEWMGFINPYNDDIQSNERFRGRVTMTRDTSISTAYMELSRLRSDDTAVYYCARGAGMNFDGAYRFFDFWGQGTMVTVSS
VL: DIVMTQSPLSLPVTPGEPASISCRSSQRLVHSNGNTYLHWYLQKPGQSPRLLIYRVSNRFPGVPDRFSGSGSGTDFTLKISRVEAEDVGVYYCSQSTHVPYTFGQGTKLEIK
notes: Variant of hJOVI-1; captured by anti-human IgG in SPR; also called VH Y102M
In assay [2], B6 registered a Kd of 90 nM, a dissociation rate constant (koff) of 0.00951 s⁻¹ and an association rate constant (kon) of 106000 M⁻¹ s⁻¹.

B7: Mut8 (antibody, V domains shown)
VH: QVQLVQSGAEVKKPGASVKVSCKASGYTFTSYVMHWVRQAPGQGLEWMGFINPYNDDIQSNERFRGRVTMTRDTSISTAYMELSRLRSDDTAVYYCARGAGYNFDGAYRFFDFWGQGTMVTVSS
VL: DIVMTQSPLSLPVTPGEPASISCRSSQRLVHSNGNTYLHWYLQKPGQSPRLLIYRVSNRFPGVPDRFSGSGSGTDFTLKISRVEAEDVGVYYCSQSTHVPYTFGQGTKLEIK
notes: Variant of hJOVI-1; captured by anti-human IgG in SPR; also called VH G31S
In assay [2], B7 yielded a Kd of 7.69 nM, a koff of 0.000756 s⁻¹ and a kon of 98300 M⁻¹ s⁻¹.

B8: Mut15 (antibody, V domains shown)
VH: QVQLVQSGAEVKKPGASVKVSCKASGYKFTGFVMHWVRQAPGQGLEWMGFINPYNDDIQSNERFRGRVTMTRDTSISTAYMELSRLRSDDTAVYYCARGNGLMFDGAYRFFDFWGQGTMVTVSS
VL: DIVMTQSPLSLPVTPGEPASISCRSSQRLVHSNGRTYLHWYLQKPGQSPRLLIYRVSNRFPGVPDRFSGSGSGTDFTLKISRVEAEDVGVYYCSQSTHVPYTFGQGTKLEIK
notes: Variant of hJOVI-1; IgG format; also called TRBC2 antibody Mut15; KFN variant Mut15
In the case of B8, the binding result in assay [4] is reported as “no binding (tested: not printed on the sheet)”. Moreover, in assay [6], binding was put at a Kd of 1900 nM, the koff is 0.0832 s⁻¹ and the kon is 43800 M⁻¹ s⁻¹.

B9: Mut5 (antibody, V domains shown)
VH: QVQLVQSGAEVKKPGASVKVSCKASGYTFTGFVMHWVRQAPGQGLEWMGFINPYNDDIQSNERFRGRVTMTRDTSISTAYMELSRLRSDDTAVYYCARGAGYNFDGAYRFFDFWGQGTMVTVSS
VL: DIVMTQSPLSLPVTPGEPASISCRSSQRLVHSNGNTYLHWYLQKPGQSPRLLIYRVSNRFPGVPDRFSGSGSGTDFTLKISRVEAEDVGVYYCSQSTHVPYTFGQGTKLEIK
notes: Variant of hJOVI-1; captured by anti-human IgG in SPR; also called VH Y32F
For the molecule B9, in assay [2], the dissociation constant Kd was 426 nM, the koff is 0.0457 s⁻¹ and the association rate constant (kon) was found to be 107000 M⁻¹ s⁻¹.

B10: Mut9 (antibody, V domains shown)
VH: QVQLVQSGAEVKKPGASVKVSCKASPYKFTGYVMHWVRQAPGQGLEWMGFINPYNDDIQSNERFRGRVTMTRDTSISTAYMELSRLRSDDTAVYYCARGAGYNFDGAYRFFDFWGQGTMVTVSS
VL: DIVMTQSPLSLPVTPGEPASISCRSSQRLVHSNGNTYLHWYLQKPGQSPRLLIYRVSNRFPGVPDRFSGSGSGTDFTLKISRVEAEDVGVYYCSQSTHVPYTFGQGTKLEIK
notes: Variant of hJOVI-1; captured by anti-human IgG in SPR; also called VH G26P, T28K
As to B10, in assay [2], binding was put at a Kd of 28.9 nM, the koff came to 0.00248 s⁻¹ and the kon came out at 85800 M⁻¹ s⁻¹.

B11: Mut4 (RFN) (antibody, V domains shown)
VH: QVQLVQSGAEVKKPGASVKVSCKASGYRFTGFVMHWVRQAPGQGLEWMGFINPYNDDIQSNERFRGRVTMTRDTSISTAYMELSRLRSDDTAVYYCARGNGYNFDGAYRFFDFWGQGTMVTVSS
VL: DIVMTQSPLSLPVTPGEPASISCRSSQRLVHSNGNTYLHWYLQKPGQSPRLLIYRVSNRFPGVPDRFSGSGSGTDFTLKISRVEAEDVGVYYCSQSTHVPYTFGQGTKLEIK
notes: Variant of hJOVI-1; captured by anti-human IgG in SPR
Consider B11, for which, in assay [6], the affinity, expressed as Kd, was 582 nM; the off-rate (koff) worked out at 0.045 s⁻¹; the on-rate constant (kon) was 77600 M⁻¹ s⁻¹.

B12: Mut12 (antibody, V domains shown)
VH: QVQLVQSGAEVKKPGASVKVSCKASGYKFTGFVMHWVRQAPGQGLEWMGFINPYNDDIQSNERFRGRVTMTRDTSISTAYMELSRLRSDDTAVYYCARGNGYLFDGAYRFFDFWGQGTMVTVSS
VL: DIVMTQSPLSLPVTPGEPASISCRSSQRLVHSNGKTYLHWYLQKPGQSPRLLIYRVSNRFPGVPDRFSGSGSGTDFTLKISRVEAEDVGVYYCSQSTHVPYTFGQGTKLEIK
notes: Variant of hJOVI-1; captured by anti-human IgG in SPR; also called VH T28K, Y32F, A100N, N103L; VL N35K
For B12, in assay [2], the Kd is 707 nM, the koff turned out to be 0.0613 s⁻¹ and the association rate constant (kon) stood at 86800 M⁻¹ s⁻¹.

B13: Mut13 (antibody, V domains shown)
VH: QVQLVQSGAEVKKPGASVKVSCKASGYKFTGFVMHWVRQAPGQGLEWMGFINPYNDDIQSNERFRGRVTMTRDTSISTAYMELSRLRSDDTAVYYCARGNGYNFDGAYRFFDFWGQGTMVTVSS
VL: DIVMTQSPLSLPVTPGEPASISCRSSQRLVHSNGKTYLHWYLQKPGQSPRLLIYRVSNRFPGVPDRFSGSGSGTDFTLKISRVEAEDVGVYYCSQSTHVPYTFGQGTKLEIK
notes: Variant of hJOVI-1; captured by anti-human IgG in SPR; also called VH T28K, Y32F, A100N; VL N35K
With B13, in assay [2], binding was characterised by a dissociation constant (Kd) of 1000 nM, the dissociation rate constant (koff) worked out at 0.108 s⁻¹ and the kon is 107000 M⁻¹ s⁻¹.
